Tests used:
BHET = conditions: 120 h; part of the chain shown
p-NP-C6 = conditions: pH 8.5, 60 °C

Row | Protein | plate clearing (BHET) | also measured
1 | unnamed (protein) MKFNLSEKWLIALLASSLSFNALAVGGGGDDDDPPSCETDCGYERGPDPTASSLEADDGPYNVSTINVSSFVSGFGGGTIHYPRGTSGTMGAIAVVPGFVSSESDIIWWGSRIASHGFVVITIDTNSGFDQPDSRANQLSAALDYVIDESDSSSSAISGMVDSSRLGVMGWSMGGGGSLKLATDRNLMAIIPQAPYYSGFNDFDEITTPTLIIACENDAVAPVSSHASSFYYDIPSSTDKAFLEINNGSHYCGNTGNANEDILGKYGVAWMKRFIDLDQRYDQFLCGPNHDAPYAISEYRDTCN | not clears the plate | 
2 | unnamed (protein) MTVCKLRMFTAQKHPVTNKIFGGSSMSSRKQDLRLRQLLYCLLLSTALGGAVVHAQTAPATIAQEAFNNGFGIFTAAGSATANGQAVLAGTFGGTDGSITSSPISTQGFSNITVSFDRTTVGLDNGEAGVAEFSVAGGAFTAIESAQTASGRMSFALAASAANQAQLRLRFRVVASRANETYSVDNVLVQGVAAGAQPPPPDPQPTNNPFQRGPTPSAATLEAAQGPFAVATTTVPNPSGFGAGTIYFPTSTTEGPFAAVSIAPGFSERQANVNWWGPRLASNGFVVVVIDTNSTSDAPASRATQLVAALRQVVTLSGTSGSPVFNKVDGNRLGVMGHSLGGGGTLIAAQNNPTLKAAIPFAPFNNDTNFSSVVVPTLIIACENDNVAPVADHASPFYNSFAASLDKAFLEIAGGSHSCANSGNNNMPILGKYGVSWMKLFMDNDTRYSPFLCGAPHQADLSGTQISEYRESCP | clears the plate (z > 3 vs empty vector) | 
3 | unnamed (protein) MLALRTSFPRVLTRLLAASLATGLVAQAQAAGHERGPAPTAASLEAEAGPFQVASTVLGAPVGYKGGTVFYPKGPGPFALVAFAPGFIETQSWNAWWAKYLASHGFVVVNIDTKSTLAFPPARQREQLAALKDVIQRSHTRGTPFYGLVDATRLGAMGHSMGGGATLELARDTPHIKAIVPMAPFQTTGTDYSRLTVPTLILTCKGDIVASAKSHAAPIYDSLPSSLDKAHVELAGGGGHPCTTSLGTSAEVKKVAAKYGVSWLKRFLDEDTRYSPFLCGAEHEASLKTSVVSAYQGNCP | not clears the plate | 
4 | unnamed (protein) MNNNKMPKSALSLLVAGALFLSATAMAANPVPPPTNPGNPDSGYQRGPNPSVSMLEARNGPFSVRTTNVSSFTSGFGGGTIHYPTNTTGTMAAIVVIPGFVSAESSIEWWGPKLASHGFVVMTIDTNSGFDQPPSRARQINAALDYLIDQNNARGSAVSGMIDPNRLGVVGWSMGGGGSLRVAAEGRLDAVIPLAPWDTTNFRSVNTPALIFACESDTIAPVRSHASPFYNQIPASTPKAFVEISRGSHYCANGGGSNDAVLSRLGVSWMKVHLDKDQRYQQFICGPRHESDRSISEYRGN | not clears the plate | 
5 | unnamed (protein) MDKTRLFSTLSMVTSALLFSISVSAGKPSKGGDEPAPEPAACISDTDITSAALSSTGSSGPFTVSTKDVSRWSASGFGGGTIHYPTGAGDCGPIGGIAVVPGYVSYEASIKWWGPRLASWGFVVITINTNSIYDQPDSRATQLSAALDHIINDSTVGSMVDSSRLGAIGWSMGGGGALKLATDRSEVKAIIPQAPWYSGRYGRMKTPAFMIGCENDFVAPTSNHVDVFYANASGPKMKIEVNNGDHSCANSGYNETLLGKPGIAWMQRYIHGDTRFNQFLCGNENYGSSNSVSAYDFESC | not clears the plate | 
6 | unnamed (protein) MANPYERGPNPTDALLEASSGPFSVSEENVSRLSASGFGGGTIYYPRENNTYGAVAISPGYTGTEASIAWLGERIASHGFVVITIDTITTLDQPDSRAEQLNAALNHMINRASSTVRSRIDSSRLAVMGHSMGGGGTLRLASQRPDLKAAIPLTPWHLNKNWSSVTVPTLIIGADLDTIAPVATHAKPFYNSLPSSISKAYLELDGATHFAPNIPNKIIGKYSVAWLKRFVDNDTRYTQFLCPGPRDGLFGEVEEYRSTCPF | clears the plate (z > 3 vs empty vector) | 
7 | unnamed (protein) MNFPRASRLMQAAVLGGLMAVSAAATAQTNPYARGPNPTAASLEASAGPFTVRSFTVSRPSGYGAGTVYYPTNAGGTVGAIAIVPGYTARQSSIKWWGPRLASHGFVVITIDTNSTLDQPSSRSSQQMAALRQVASLNGTSSSPIYGKVDTARMGVMGWSMGGGGSLISAANNPSLKAAAPQAPWDSSTNFSSVTVPTLIFACENDSIAPVNSSALPIYDSMSRNAKQFLEINGGSHSCANSGNSNQALIGKKGVAWMKRFMDNDTRYSTFACENPNSTRVSDFRTANCS | clears the plate (z > 3 vs empty vector) | 
8 | unnamed (protein) MERTVVETRYGRLRGEMNEGVFVWKGIPYAKAPVGERRFLPPEPPDAWDGVREATSFGPVVMQPSDPIFSGLLGRMSEAPSEDGLYLNIWSPAADGKKRPVLFWIHGGAFLFGSGSSPWYDGTAFAKHGDVVVVTINYRMNVFGFLHLGDSFGEAYAQAGNLGILDQVAALRWVKENIAAFGGDPDNITIFGESAGAASVGVLLSLPEASGLFRRAMLQSGSGSLLLRSPETAMAMTERILDKAGIRPGDRERLLSIPAEELLRAALSLGPGVMYGPVVDGRVLRRHPIEALRYGAASGIPILIGVTKDEYNLFTLTDPSWTKLGEKELLDRINREVGPVPEEAIRYYKETAEPSAPTWQTWLRIMTYRVFVEGMLRTADAQAAQGADVYMYRFDYETPVFGGQLKACHALELPFVFHNLHQPGVANFVGNRPEREAIANEMHYAWLSFARTGDPNGAHLPEAWPAYTNERKAAFVFSAASHVEDDPFGRERAAWQGR |  | Km (p-NP-C6): 0.5 µM; kcat (p-NP-C6): 39.8 s⁻¹; kcat/Km (p-NP-C6): 7.95e+07 M⁻¹ s⁻¹
9 | unnamed (protein) MKIVPPKPFFFEAGERAVLLLHGFTGNSADVRMLGRFLESKGYTCHAPIYKGHGVPPEELVHTGPDDWWQDVMNGYEFLKNKGYEKIAVAGLSLGGVFSLKLGYTVPIEGIVTMCAPMYIKSEETMYEGVLEYAREYKKREGKSEEQIEQEMEKFKQTPMKTLKALQELIADVRDHLDLIYAPTFVVQARHDEMINPDSANIIYNEIESPVKQIKWYEQSGHVITLDQEKDQLHEDIYAFLESLDW |  | Km (p-NP-C6; part of the chain shown): 2.16 µM; kcat (p-NP-C6; part of the chain shown): 38 s⁻¹; kcat/Km (p-NP-C6; part of the chain shown): 1.76e+07 M⁻¹ s⁻¹

Reference: the PETadex activity labels
